Assay [1] addresses TbTrm140 (3-methylcytosine methyltransferase of Trypanosoma brucei), wild type (T. brucei). Kind of assay: SEC.
The target in assay [2] is TbTrm140 N-terminal deletion mutant (TbTrm140 ΔS2-G17) (T. brucei). Briefly: SEC. (In gel filtration, larger molecules generally elute earlier.)

One may read the stoichiometry N as a count of units in the complex or per binding partner. In assay [1], “TbTrm140 (3-methylcytosine methyltransferase of Trypanosoma brucei), wild type (enzyme)” came in with a stoichiometry N of 2. “TbTrm140 N-terminal deletion mutant (TbTrm140 ΔS2-G17) (enzyme)”: the stoichiometry N in assay [2] stood at 2.

(Values after PMC5733570.)
